This note sets out measurements from patent publication US20200040057A1 (IMMATICS BIOTECHNOLOGIES, published 2020).

The chains are these.
B1: DDX5-001 (YLLPAIVHI from DDX5) (peptide)
peptide: YLLPAIVHI
notes: Negative control peptide for stimulations; also called 447

The first test concerns the target HLA-B*07 (human). Nature of the test: UV peptide exchange ELISA; + = yield >10%. A general note: An ELISA detects its analyte on a solid surface through an enzyme-linked reagent.
For the molecule MPREDAHF, the peptide exchange yield lay within 10 to 20%.
On the same count and under the same terms, with YPLQQTNVY the figure was 10 to 20%; with MLKTTLTAF, 10 to 20%.
On the same count and under the same terms, with SAAARALLP the figure was 10 to 20%.
Still for that read-out and setting: the same measure for KSKQVITLL: 10 to 20%; for LPKPDLPQLI: 10 to 20%.
In the case of IPLEIQKL, the peptide exchange yield lay in the range of 10 to 20%.
Regarding LPLKFFPII, the peptide exchange yield was 10 to 20%.
With VPLPAGGGTVLT, the peptide exchange yield is 10 to 20%.
Still for that read-out and setting: with IPFSVDEI the figure was 10 to 20%; with KPGLPGLK, 10 to 20%; with AQNPAGTAL, 10 to 20%.
KATEYVHSL: the peptide exchange yield was in the range of 10 to 20%.
On the same count and under the same terms, the same measure for LPLQQYKLV: 10 to 20%.

The target in another test is HLA-B*07 (human). Nature of the test: UV peptide exchange ELISA; ++ = yield >20%.
MALSVLRLAL yielded a peptide exchange yield of 20 to 50%.
On the same count and under the same terms, the same measure for MPEADLKRIF: 20 to 50%; for LPPHIFAI: 20 to 50%.
As for LPASAEPKGTM, the peptide exchange yield is 20 to 50%.
In the case of IAYPSLREAAL, the peptide exchange yield was 20 to 50%.
Turning to FLIPRAGWLAGL, the peptide exchange yield fell in the range of 20 to 50%.
With TVYGEPRKL, the peptide exchange yield is 20 to 50%.
LPMPAITWY yielded a peptide exchange yield of 20 to 50%.
Same read-out and setting: the same measure for ALLLRGVTL: 20 to 50%; for LPLLAGTLLL: 20 to 50%.
Molecule AAHEFGHVL returned a peptide exchange yield of 20 to 50%.
IALMKLAGPL showed a peptide exchange yield of 20 to 50%.
TPTRPLPSA: the peptide exchange yield is 20 to 50%.
The molecule SPLIGDFPAF showed a peptide exchange yield of 20 to 50%.
Take KPSAVKDSIY: the peptide exchange yield was in the range of 20 to 50%.
For AVSSHHNVI, the peptide exchange yield lay in the range of 20 to 50%.
With EPNPVEEIF, the peptide exchange yield lay in the range of 20 to 50%.

For a further test, the target named is HLA-A*02:01 (human). Nature of the test: control peptide-MHC complex on beads, in vitro T-cell priming. The protocol: 800.000 beads/200 μl were coated in 96-well plates in the presence of 4×12.5 ng different biotin-pMHC, washed and 600 ng biotin anti-CD28 were added subsequently in a volume of 200 μl. Stimulations were initiated in 96-well plates by co-incubating 1×10⁶ CD8+ T cells with 2×10⁵ washed coated beads in 200 μl TCM supplemented with 5 ng/ml IL-12 (PromoCell) for 3 days at 37° C. Half of the medium was then exchanged by fresh TCM supplemented with 80 U/ml IL-2 and incubating was continued for four days at 37° C. This stimulation cycle was performed for a total of three times. […] Finally, multimeric analyses were performed by staining the cells with Live/dead near IR dye (Invitrogen, Karlsruhe, Germany), CD8-FITC antibody clone SK1 (BD, Heidelberg, Germany) and fluorescent pMHC multimers. For analysis, a BD LSRII SORP cytometer equipped with appropriate lasers and filters was used. Peptide specific cells were calculated as percentage of total CD8+ cells. Evaluation of multimeric analysis was done using the FlowJo software (Tree Star, Oregon, USA). In vitro priming of specific multimer+CD8+ lymphocytes was detected by comparing to negative control stimulations.
Turning to B1, the binding result is “binds”.
